In article PMC3629964 one finds stoichiometry N data, which are given here for 1 substance.

The target of this experiment is NH2-terminal-PEGylated HZ-TRAIL monomer (human) (UniProt P50591). Nature of the experiment: SEC + other: quantitative Western blot. A general note: A western blot detects proteins with antibodies after separation by electrophoresis.

On to “6xHis-ILZ-hTRAIL(114-281) (from UniProt P50591 114-281) (ligand)”, for which the stoichiometry N turned out to be 2.

As usually defined, the stoichiometry N is the number of molecules, sites or subunits per partner or assembly.
